Assay results from doi:10.1101/2023.01.26.525744.

Experiments:
Assay in all cases: NMR titration
[1] = target: paxillin LIM2/3 tandem domain (aa380-499) (human) (UniProt P49023)
[2] = target: cytoplasmic tail of human integrin β1 (aa758-798) (human) (UniProt P05556)
[3] = target: cytoplasmic tail of human integrin β3 (aa748-788) (human) (UniProt P05106)

UniProt P05556, sequence (P05556 758-798): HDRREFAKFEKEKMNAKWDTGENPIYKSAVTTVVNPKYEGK

Kd [1] [µM]	Kd [2] [µM]	Kd [3] [µM]	Substance
532			cytoplasmic tail of human integrin β3 (aa748-788) (from UniProt P05106 748-788) (domain or fragment)
	52	528	paxillin LIM2/3 tandem domain (aa380-499) (from UniProt P49023-2 380-499) (domain or fragment)
